Patent US20240272170A1

T1: HA peptide (Octet assay of PS621 variants)
T1 sequence (peptide): HAKLDEESILKQK


Columns and labels:
[1] = molecular target: T1, HA peptide (Octet assay of PS621 variants); experiment: Octet (BLI), 30 C
[2] = molecular target: IA peptide (Octet assay of PS557 variants); experiment: Octet (BLI), peptide on sensor, response after 200 s association
[3] = molecular target: WA peptide (Octet assay of PS557 variants); experiment: as above
[4] = molecular target: MA peptide (Octet assay of PS557 variants); experiment: as above
[5] = molecular target: FA peptide (Octet assay of PS557 variants); experiment: as above
[6] = molecular target: YA peptide (Octet assay of PS557 variants); experiment: as above
[7] = molecular target: N-terminal alanine peptide (SNAP display selection); experiment: SNAP display, 4 rounds of selection on alanine peptide; NGS abundance in round 4 / naive library

Row | Octet response [1] | Octet response [2] [nm] | Octet response [3] [nm] | Octet response [4] [nm] | Octet response [5] [nm] | Octet response [6] [nm] | Enrichment [7] | Binder
1 | 0.1 |  |  |  |  |  |  | PS1101 (designed binder) MHSKFSHAGRICGAKFKVREPIYRCKECSFDDTCVLCVNCFNPKDHTGHHVYTTICTEFNNGICDCGDKEAWNHTLFCKAEEG
2 | 0.1 |  |  |  |  |  |  | PS1112 (designed binder) MHSKFSHAGRICGAKFKVGEPIYRCKECSFDDTCVLCVNCFNPKDHTGHHVYTTICTEFNNGICDCGDKTAWNHTLFCKAEEG
3 | 0.1 |  |  |  |  |  |  | PS1103 (designed binder) MHSKFSHAGRICGAKFKVGEPIYRCKECSFDYTCVLCVNCFNPKDHTGHHVYTTICTEFNNGICDCGDKEAWNHTLFCKAEEG
4 | 0.1 |  |  |  |  |  |  | PS1111 (designed binder) MHSKFSHAGRICGAKFKVGEPIYRCKECSFDDTCVLCVNCFNPKDHTGHHVYTTICTEFNNGICDCGDKSAWNHTLFCKAEEG
5 |  | 11.6 | 0.761 | 8.42 | 1.37 | 1.23 |  | PS796 (designed binder) MPTAASATESAIEDTPAPARPEVDGRTKPKRQPRYHVVLWDDDDHTYQYVVVMLQSLFGHPPERGYRLAKEMDTQGRVIVLTTTREHAELKRDQIHAFGYDRLLARSKGSMKASIEAEE
6 |  | 9.02 | 0.0148 | 1.75 | 0.00662 | 0.054 |  | PS801/PS814 (designed binder) MPTAASATESAIEDTPAPARPEVDGRTKPKRQPRYHVVLWNDDDHTYQYVVVMLQSLFGHPPKRGYRLAKEVDTQGRVIVLTTTREHAELKRDQIHAFGYDRLLARSKGSMKASIEAEE
7 |  |  |  |  |  |  | 320 | PS557 mutant N41D, Q55R, H60I, V72M (SNAP display clone) (designed binder, not shown: large carriers; small tags and cut ends, In the selection the protein carried an N-terminal SNAP tag covalently bound to benzylguanine on its own coding DNA; this is not in the letters.) MPTAASATESAIEDTPAPARPEVDGRTKPKRQPRYHVVLWDDDDHTYQYVVVMLRSLFGIPPERGYRLAKEMDTQGRVIVLTTTREHAELKRDQIHAFGYDRLLARSKGSMKASIEAEE
8 |  | 11.2 | 0.0581 | 8.09 | 0.377 | 0.59 |  | PS838 (designed binder) MPTAASATESAIEDTPAPARPEVDGRTKPKRQPRYHVVLWDDDDHTYQYVVVMLQSLFGHPRERGYRLAKEMDTQGRVIVLTTTREHAELKRDQIHAFGYDRLLARSKGSMKASIEAEE
9 |  | 7.77 | 0.0098 | 3.23 | 0.059 | 0.0607 |  | PS847 (designed binder) MPTAASATESAIEDTPAPARPEVDGRTKPKRQPRYHVVLWDDDDHTYQYVVVMLRSLFGHPPERGYRLAKEMDTQGRVIVLTTTREHAELKRDQIHAFGYDRLLARSKGSMKASIEAEE
10 |  | 5.32 |  | 1.7 | 0.583 |  |  | PS828 (designed binder) MPTAASATESAIEDTPAPARPEVDGRTKPKRQPRYHVVLWDDDDHTYQYVVVMLQSLFGHPRERGYRLAKEVDTLGRVIVLTTTREHAELKRDQIHAFGYDRLLARSKGSMKASIEAEE
11 |  |  |  |  |  |  | 154 | PS557 mutant N41D, Q55R, E63A, V72M, Y100R (SNAP display clone) (designed binder, not shown: large carriers; small tags and cut ends, In the selection the protein carried an N-terminal SNAP tag covalently bound to benzylguanine on its own coding DNA; this is not in the letters.) MPTAASATESAIEDTPAPARPEVDGRTKPKRQPRYHVVLWDDDDHTYQYVVVMLRSLFGHPPARGYRLAKEMDTQGRVIVLTTTREHAELKRDQIHAFGRDRLLARSKGSMKASIEAEE
12 |  |  |  |  |  |  | 158 | PS557 mutant N41D, Q55R, P62Y, E63T, V72M, Y100R (SNAP display clone) (designed binder, part only, N-terminal SNAP tag) MPTAASATESAIEDTPAPARPEVDGRTKPKRQPRYHVVLWDDDDHTYQYVVVMLRSLFGHPYTRGYRLAKEMDTQGRVIVLTTTREHAELKRDQIHAFGRDRLLARSKGSMKASIEAEE
13 |  | 10.5 |  | 4.86 | 0.755 |  |  | PS831 (designed binder) MPTAASATESAIEDTPAPARPEVDGRTKPKRQPRYHVVLWNDDDHTYQYVVVMLQSLFGHPRKRGYRLAKEMDTLGRVIVLTTTREHAELKRDQIHAFGYDRLLARSKGSMKASIEAEE
14 |  |  |  |  |  |  | 166 | PS557 mutant N41D, Q55R, E63S, L68M, V72M, Y100R (SNAP display clone) (designed binder, not shown: large carriers; small tags and cut ends, In the selection the protein carried an N-terminal SNAP tag covalently bound to benzylguanine on its own coding DNA; this is not in the letters.) MPTAASATESAIEDTPAPARPEVDGRTKPKRQPRYHVVLWDDDDHTYQYVVVMLRSLFGHPPSRGYRMAKEMDTQGRVIVLTTTREHAELKRDQIHAFGRDRLLARSKGSMKASIEAEE
15 |  | 9.27 | 0.00243 | 1.88 | 0.00233 | 0.0539 |  | PS808 (designed binder) MPTAASATESAIEDTPAPARPEVDGRTKPKRQPRYHVVLWNDDDHTYQYVVVMLRSLFGHPPERGYRLAKEVDTQGRVIVLTTTREHAELKRDQIHAFGYDRLLARSKGSMKASIEAEE
16 |  | 12.7 |  | 9.37 | 1.41 |  |  | PS798 (designed binder) MPTAASATESAIEDTPAPARPEVDGRTKPKRQPRYHVVLWNDDDHTYQYVVVMLQSLFGHPPERGYRLAKEMDTLGRVIVLTTTREHAELKRDQIHAFGYDRLLARSKGSMKASIEAEE
17 |  | 9.06 |  | 3.75 |  |  |  | PS819 (designed binder) MPTAASATESAIEDTPAPARPEVDGRTKPKRQPRYHVVLWDDDDHTYQYVVVMLQSLFGHPPKRGYRLAKEMDTQGRVIVLTTTREHAELKRDQIHAFGYDRLLARSKGSMKASIEAEE
18 |  | 11.6 |  | 8.71 | 0.202 |  |  | PS797 (designed binder) MPTAASATESAIEDTPAPARPEVDGRTKPKRQPRYHVVLWDDDDHTYQYVVVMLQSLFGHPPERGYRLAKEMDTLGRVIVLTTTREHAELKRDQIHAFGYDRLLARSKGSMKASIEAEE
19 |  |  |  |  |  |  | 133 | PS557 mutant N41D, Q55R, E63W, V72M, R106H (SNAP display clone) (designed binder, not shown: large carriers; small tags and cut ends, In the selection the protein carried an N-terminal SNAP tag covalently bound to benzylguanine on its own coding DNA; this is not in the letters.) MPTAASATESAIEDTPAPARPEVDGRTKPKRQPRYHVVLWDDDDHTYQYVVVMLRSLFGHPPWRGYRLAKEMDTQGRVIVLTTTREHAELKRDQIHAFGYDRLLAHSKGSMKASIEAEE
20 |  | 8.52 | 0.0117 | 2.23 | 0.0032 | 0.0027 |  | PS809 (designed binder) MPTAASATESAIEDTPAPARPEVDGRTKPKRQPRYHVVLWNDDDHTYQYVVVMLQSLFGHPPERGYRLAKEMDTQGRVIVLTTTREHAELKRDQIHAFGYDRLLARSKGSMKASIEAEE
21 |  |  |  |  |  |  | 124 | PS557 mutant N41D, E63S, L68M, V72M, R106H (SNAP display clone) (designed binder, not shown: large carriers; small tags and cut ends, In the selection the protein carried an N-terminal SNAP tag covalently bound to benzylguanine on its own coding DNA; this is not in the letters.) MPTAASATESAIEDTPAPARPEVDGRTKPKRQPRYHVVLWDDDDHTYQYVVVMLQSLFGHPPSRGYRMAKEMDTQGRVIVLTTTREHAELKRDQIHAFGYDRLLAHSKGSMKASIEAEE
22 |  | 6.51 |  | 2.16 | 0.0339 |  |  | PS830 (designed binder) MPTAASATESAIEDTPAPARPEVDGRTKPKRQPRYHVVLWDDDDHTYQYVVVMLQSLFGHPRKRGYRLAKEMDTLGRVIVLTTTREHAELKRDQIHAFGYDRLLARSKGSMKASIEAEE
